Measured values from article PMC3438448.

Key:
[1] = target: GST-dynein_(331 kDa) (S. cerevisiae) (UniProt P36022)
[2] = target: GST-dynein_(331 kDa) (S. cerevisiae) (UniProt P36022); remark: listed apart in the source

Chain of GST-dynein_(331 kDa) (S. cerevisiae) (P36022 whole entry): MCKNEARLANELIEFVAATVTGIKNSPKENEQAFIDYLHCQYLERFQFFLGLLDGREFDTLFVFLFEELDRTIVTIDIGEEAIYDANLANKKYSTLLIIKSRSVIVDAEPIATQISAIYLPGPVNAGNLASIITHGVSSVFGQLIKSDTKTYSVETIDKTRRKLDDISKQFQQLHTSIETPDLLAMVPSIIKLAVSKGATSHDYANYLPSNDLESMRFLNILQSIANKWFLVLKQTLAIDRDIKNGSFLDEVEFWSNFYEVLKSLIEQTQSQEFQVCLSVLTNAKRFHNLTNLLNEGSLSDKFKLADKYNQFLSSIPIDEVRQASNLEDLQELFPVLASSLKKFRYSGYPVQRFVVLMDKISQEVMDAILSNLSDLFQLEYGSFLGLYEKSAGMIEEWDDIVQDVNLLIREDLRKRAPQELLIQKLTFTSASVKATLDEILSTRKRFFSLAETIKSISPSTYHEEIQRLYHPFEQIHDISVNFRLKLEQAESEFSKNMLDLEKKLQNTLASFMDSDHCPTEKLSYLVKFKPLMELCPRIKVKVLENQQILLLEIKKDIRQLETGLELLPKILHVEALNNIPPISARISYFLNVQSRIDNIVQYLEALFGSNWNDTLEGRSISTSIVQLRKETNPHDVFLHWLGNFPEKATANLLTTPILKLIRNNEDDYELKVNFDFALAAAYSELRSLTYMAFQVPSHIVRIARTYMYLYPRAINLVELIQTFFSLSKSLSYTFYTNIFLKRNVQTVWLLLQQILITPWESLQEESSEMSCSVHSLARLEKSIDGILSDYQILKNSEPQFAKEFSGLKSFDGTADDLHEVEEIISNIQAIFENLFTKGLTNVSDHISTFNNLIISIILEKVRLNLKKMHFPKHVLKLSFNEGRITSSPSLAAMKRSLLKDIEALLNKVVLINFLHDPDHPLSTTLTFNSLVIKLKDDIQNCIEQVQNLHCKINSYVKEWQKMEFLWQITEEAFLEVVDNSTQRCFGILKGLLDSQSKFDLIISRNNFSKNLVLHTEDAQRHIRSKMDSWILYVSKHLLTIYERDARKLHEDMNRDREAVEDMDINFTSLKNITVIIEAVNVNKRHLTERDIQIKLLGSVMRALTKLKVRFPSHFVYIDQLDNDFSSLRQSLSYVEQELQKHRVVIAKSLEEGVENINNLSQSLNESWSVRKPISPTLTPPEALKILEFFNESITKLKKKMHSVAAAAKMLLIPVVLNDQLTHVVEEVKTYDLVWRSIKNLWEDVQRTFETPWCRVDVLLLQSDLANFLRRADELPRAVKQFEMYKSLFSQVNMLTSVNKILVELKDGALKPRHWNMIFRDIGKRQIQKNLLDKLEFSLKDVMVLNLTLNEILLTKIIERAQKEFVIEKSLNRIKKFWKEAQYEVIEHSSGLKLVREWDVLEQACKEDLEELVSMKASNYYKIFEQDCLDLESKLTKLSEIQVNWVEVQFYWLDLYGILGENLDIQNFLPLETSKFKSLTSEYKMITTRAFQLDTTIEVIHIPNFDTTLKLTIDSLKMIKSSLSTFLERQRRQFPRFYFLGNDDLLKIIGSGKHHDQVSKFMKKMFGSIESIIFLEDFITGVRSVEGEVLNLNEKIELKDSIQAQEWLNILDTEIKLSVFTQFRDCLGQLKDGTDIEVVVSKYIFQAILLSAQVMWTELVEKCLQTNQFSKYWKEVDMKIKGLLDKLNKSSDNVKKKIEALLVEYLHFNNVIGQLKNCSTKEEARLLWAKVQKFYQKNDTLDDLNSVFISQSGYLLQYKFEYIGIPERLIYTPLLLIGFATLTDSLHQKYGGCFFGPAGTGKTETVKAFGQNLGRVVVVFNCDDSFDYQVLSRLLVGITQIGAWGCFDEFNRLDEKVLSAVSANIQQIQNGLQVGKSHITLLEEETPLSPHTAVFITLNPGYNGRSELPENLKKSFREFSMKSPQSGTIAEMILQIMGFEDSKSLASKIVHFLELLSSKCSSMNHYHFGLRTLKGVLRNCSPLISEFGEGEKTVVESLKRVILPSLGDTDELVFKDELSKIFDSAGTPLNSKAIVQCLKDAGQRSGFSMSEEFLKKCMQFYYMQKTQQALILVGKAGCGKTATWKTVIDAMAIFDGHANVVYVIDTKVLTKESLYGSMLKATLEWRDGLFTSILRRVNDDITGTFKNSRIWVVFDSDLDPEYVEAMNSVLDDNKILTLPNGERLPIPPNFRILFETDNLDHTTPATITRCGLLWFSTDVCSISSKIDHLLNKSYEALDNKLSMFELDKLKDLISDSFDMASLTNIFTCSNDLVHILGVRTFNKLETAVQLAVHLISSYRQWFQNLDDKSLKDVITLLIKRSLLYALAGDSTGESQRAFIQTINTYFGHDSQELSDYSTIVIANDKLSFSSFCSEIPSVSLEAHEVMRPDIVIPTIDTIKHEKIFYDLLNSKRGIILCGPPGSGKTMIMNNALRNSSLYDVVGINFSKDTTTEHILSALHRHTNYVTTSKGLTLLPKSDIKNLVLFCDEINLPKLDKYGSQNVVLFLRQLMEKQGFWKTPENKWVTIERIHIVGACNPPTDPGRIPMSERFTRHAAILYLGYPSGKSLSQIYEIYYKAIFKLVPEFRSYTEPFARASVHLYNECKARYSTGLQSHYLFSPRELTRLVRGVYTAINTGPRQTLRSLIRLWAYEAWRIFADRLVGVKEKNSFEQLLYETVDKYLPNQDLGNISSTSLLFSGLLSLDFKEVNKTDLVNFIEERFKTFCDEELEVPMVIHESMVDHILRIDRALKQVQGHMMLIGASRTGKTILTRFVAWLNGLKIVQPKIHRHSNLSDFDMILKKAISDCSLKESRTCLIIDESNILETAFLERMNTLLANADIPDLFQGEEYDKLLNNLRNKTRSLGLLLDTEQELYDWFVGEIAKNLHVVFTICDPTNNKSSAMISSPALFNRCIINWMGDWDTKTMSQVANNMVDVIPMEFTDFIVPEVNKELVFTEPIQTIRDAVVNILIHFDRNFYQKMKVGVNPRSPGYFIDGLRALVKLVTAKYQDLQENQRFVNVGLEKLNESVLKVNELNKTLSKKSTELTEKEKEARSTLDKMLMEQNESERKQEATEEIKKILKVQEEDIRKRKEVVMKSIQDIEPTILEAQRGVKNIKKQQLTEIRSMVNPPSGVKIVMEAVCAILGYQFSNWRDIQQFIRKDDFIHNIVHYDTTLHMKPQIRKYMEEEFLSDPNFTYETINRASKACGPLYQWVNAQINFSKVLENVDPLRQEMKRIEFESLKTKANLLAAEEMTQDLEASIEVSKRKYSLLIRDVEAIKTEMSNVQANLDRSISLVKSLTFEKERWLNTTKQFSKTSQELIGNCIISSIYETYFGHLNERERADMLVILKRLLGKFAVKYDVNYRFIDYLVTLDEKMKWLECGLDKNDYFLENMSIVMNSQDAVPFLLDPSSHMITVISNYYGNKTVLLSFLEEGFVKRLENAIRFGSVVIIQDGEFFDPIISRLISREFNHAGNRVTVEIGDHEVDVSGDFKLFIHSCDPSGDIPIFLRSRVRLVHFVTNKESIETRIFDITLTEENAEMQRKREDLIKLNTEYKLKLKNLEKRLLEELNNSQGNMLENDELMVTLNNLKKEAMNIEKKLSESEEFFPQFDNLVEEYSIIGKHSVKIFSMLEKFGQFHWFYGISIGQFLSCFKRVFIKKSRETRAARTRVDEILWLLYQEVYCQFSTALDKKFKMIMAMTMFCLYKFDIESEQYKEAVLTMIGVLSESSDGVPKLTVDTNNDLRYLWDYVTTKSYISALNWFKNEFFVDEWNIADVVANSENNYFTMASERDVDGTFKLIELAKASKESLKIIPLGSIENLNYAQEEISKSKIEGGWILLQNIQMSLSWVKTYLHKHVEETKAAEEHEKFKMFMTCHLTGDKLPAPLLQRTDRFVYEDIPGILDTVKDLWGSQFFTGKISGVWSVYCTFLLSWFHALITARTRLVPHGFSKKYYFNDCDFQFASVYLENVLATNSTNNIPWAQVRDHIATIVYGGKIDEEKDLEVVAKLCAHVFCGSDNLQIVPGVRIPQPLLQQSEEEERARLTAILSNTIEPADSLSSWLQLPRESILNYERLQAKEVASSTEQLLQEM

- K1/2: Lis1 concentration for half-maximal reduction of single-molecule GST-dynein (331 kDa) velocity [1]: 15.3 nM
- K1/2: Lis1 concentration for half-maximal velocity reduction (experiment with the AAA4 mutants) [2]: 15.7 nM
B1: Lis1 (S. cerevisiae Pac1) (natural protein)
chain: MTNWQQQLPLTDTQKNELDKSVLRYLNWNYKQTVRHEHAQDYESVRHAIVTLSGFLLQESVDRQEFISNNDTSNESMVDIDELLLPKKWNSIVRLQKKIIELEQNTETLVSQIKDLNTQVSELAQFKPTTSNGTSAHNVLKWIPRNLPSCLINVESSVTSVKLHPNLPIVFVATDHGKLYAFDLFNYTIPLASLQSHTKAITSMDVLFTNYTNSSKKNYLVIVTASKDLQIHVFKWVSEECKFQQIRSLLGHEHIVSAVKIWQKNNDVHIASCSRDQTVKIWDFHNGWSLKTFQPHSQWVRSIDVLGDYIISGSHDTTLRLTHWPSGNGLSVGTGHEFPIEKVKFIHFIEDSPEIRFRTPSTDRYKNWGMQYCVSASRDRTIKIWEIPLPTLMAHRAPIPNPTDSNFRCVLTLKGHLSWVRDISIRGQYLFSCADDKSVRCWDLNTGQCLHVWEKLHTGFVNCLDLDVDFDSNVTPRQMMVTGGLDCKSNVFMR
